Results published in patent EP1052288A1, “Complex for transferring an anionic substance of interest into a cell” (TRANSGENE S.A., priority 1999, dated 2000).
Ends that are not written are not given here.

What was measured:
[1] = Sizes of complexes by quasi-elastic light scattering; assay type: physicochemical; details: complexes (-/+) [1:4], 6 µg DNA (pTG11033), 500 µl; for Sizes in ultrafiltrated serum: ultrafiltrated foetal calf serum
Experimental: Sizes of complexes prepared with a plasmid DNA (PTG11033; see EP-A 890 32, 9.6 kb) and the C1qA (4-26) peptide (see Table I) were evaluated. Complexes were formulated either in 5% glucose or in ultrafiltrated foetal calf serum (YM10 Amicon membrane). Formulation was made in 500 µl buffer, with 6 µg DNA and the quantity of peptide necessary to form a [1:4], [-:+] complex. As a control a polylysine SV40 NLS peptide was used. […] When oxidized, the dimerized C1qA peptide could form even smaller complexes, whatever the formulation buffer used. The reasonable sizes obtained in ultrafiltrated serum with C1qA peptides is an advantage for the use of this peptide rather than polylysine derivatives.
Complexes (-/+):[1:4], 6 µg DNA, 500 µl.
Size measures: quasi-elastic light scattering, COULTER N4+. [formula] [formula] [formula] [formula]

plasmid pTG11033 = test: Gel retardation assay (agarose gel electrophoresis); assay type: binding
Experimental: Gel retardation assay was performed with C1qA (4-26) in several buffers: PBS, TBS, 5% glucose, or ultrafiltrated serum (YM10 Amicon membrane). DNA and peptides have been mixed at charge ratios [-/+] of [1:4], [1:1] and [1:0.2].

Substance: SP-1052 oxidized: When oxidized, the dimerized C1qA peptide (CRAPDGKKGEAGRPGRRGRPGLK; also: oxidized disulfide dimer; UniProt P02745 26-48, looked up, fragment)
- Sizes in 5% glucose [1]: 200 nm
- Sizes in ultrafiltrated serum [1]: 300 nm

Substance: SP-1052: C1qA (4-26) peptide, complexed with plasmid DNA (CRAPDGKKGEAGRPGRRGRPGLK; also: complexed with plasmid DNA; UniProt P02745 26-48, looked up, fragment)
- retardation in DNA (plasmid pTG11033; charge ratio [-/+] [1:1]): significative retardation
- association of DNA to the peptides (plasmid pTG11033; charge ratio [-/+] [1:4], PBS, TBS, 5% glucose or ultrafiltrated serum, absence of visible band with ethidium bromide): strong association of DNA to the peptides
- Sizes in 5% glucose [1]: 1µm
- Sizes in ultrafiltrated serum [1]: 300-500 nm
